Experimental data: the supplement of paper PMC10567573

B1: AUP1 (parent)
chain: FCASTRLPPTPLLLFPEEEATNGR

Variants of: B1
Experiment: protein stability index of a GFP-peptide fusion (GPS, HEK-293T) (PSI 1-6); higher = more stable
Conditions: c terminus: a fixed tail appended
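Also: lentivirally expressed fusions sorted by FACS into six bins by GFP to DsRed ratio, PSI derived from sequencing read proportions per bin multiplied by bin number.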

Protein stability index of substitutions, site by site:
A3: R 2.23 | Q 2.88 | V 2.76 | K 2.5 | D 3.33 | M 2.88 | G 2.36 | C 2.78 | T 2.84 | P 2.25 | S 2.44 | N 2.62 | Y 1.7 | W 1.89 | I 2.46 | E 3.67 | L 3.27 | F 2.45 | H 2.49
T5: C 1.86 | S 2.64 | G 2.7 | H 2.66 | V 2.83 | Q 2.86 | R 1.99 | M 2.96 | I 2.22 | D 3.44 | W 2.49 | P 3.16 | A 3.19 | K 2.64 | E 3.77 | Y 2.27 | F 1.81 | N 3.05 | L 2.11
T10: R 2.87 | K 3.04 | G 2.53 | V 2.39 | C 2.33 | N 2.92 | M 2.28 | D 2.84 | H 1.68 | Y 1.99 | S 2.8 | L 2.23 | A 3.13 | F 1.32 | I 2.52 | W 2.33 | Q 3.13 | E 3.23
E18: A 2.19 | C 2.18 | K 2.32 | W 1.73 | P 2.15 | R 2.23 | V 2.21 | N 2.37 | G 2.54 | I 2.4 | S 2.12 | L 2.54 | F 1.82 | H 2.15 | Y 2.07 | Q 2.72 | T 2.2 | D 2.52 | M 1.94
L12: M 3.25 | W 2.77 | Y 1.97 | I 2.58 | F 3.16 | S 3.47 | V 3.31 | D 3.72 | Q 3.7 | G 2.87 | H 2.87 | N 3.35 | R 3.12 | C 2.95 | K 3.6 | E 4.1
L13: N 3.12 | R 3.45 | A 3.43 | F 2.18 | K 2.74 | M 3.15 | G 3.42 | V 3.25 | H 3.4 | S 3.54 | T 3.56 | C 3.01 | Q 3.32 | Y 2.62 | D 3.94 | I 2.77 | W 1.59 | E 3.86
F15: Q 3.35 | D 3.62 | N 3.44 | M 3.12 | G 3.24 | Y 2.61 | I 3.23 | C 2.61 | A 2.93 | E 3.46 | R 3.37 | V 3.1 | S 3.45 | W 2.68 | H 3.34 | K 3.11 | T 3.74 | L 3.44
P11: H 2.33 | K 2.39 | L 1.63 | V 2.8 | Q 2.58 | M 2.6 | A 2.39 | F 2.08 | R 2.06 | C 2.57 | Y 1.91 | W 2.14 | D 2.99 | N 2.83 | I 2.04 | S 3.05 | T 2.74 | G 2.54 | E 3.4
C2: R 3.81 | E 4.91 | W 2.76 | G 4.33 | L 3.39 | P 3.92 | M 3.73 | Y 3.31 | V 1.55 | S 3.8 | D 4.81 | N 3.82 | I 2.62 | Q 3.58 | F 3.1 | A 3.42 | T 3.42 | H 2.17 | K 4.06
P16: G 2.69 | N 2.9 | L 1.57 | C 2.08 | F 2.24 | K 2.26 | I 1.62 | R 2.19 | A 2.68 | D 3.05 | V 1.8 | S 2.4 | E 3.48 | M 2.15 | H 2.61 | T 1.74 | Q 2.6 | W 2.48 | Y 2.03
P8: F 2.43 | H 2.33 | V 2.41 | I 2.3 | W 2.27 | M 2.57 | D 2.92 | L 1.96 | Y 1.9 | A 2.48 | R 2.67 | S 2.84 | K 2.09 | E 2.91 | N 2.66 | T 2.94 | G 2.66 | Q 3.19 | C 2.08
R6: G 2.7 | N 3.5 | K 3.09 | I 2.46 | M 3.27 | Q 3.49 | W 2.12 | F 2.2 | V 3.42 | C 2.7 | E 4.11 | L 2.73 | D 3.9 | Y 2.33 | H 3.25 | A 3.37 | S 3.29
S4: R 3.03 | Y 2.28 | W 3.38 | A 2.8 | D 3.6 | G 2.85 | H 3.05 | N 2.94 | M 2.59 | C 2.54 | Q 3.36 | K 3.01 | I 2.49 | L 2.85 | T 2.76 | E 3.52 | V 3.08 | F 2.54
E19: G 2.29 | L 2.19 | R 2.05 | K 2.32 | I 2.02 | F 1.73 | Q 2.94 | S 2.31 | C 2.04 | D 2.68 | N 2.62 | A 2.74 | P 2.38 | M 2.08 | H 2.23
E17: I 1.93 | G 2.31 | D 2.7 | K 2.25 | S 1.8 | N 2.55 | L 1.5 | F 1.83 | Q 2.28 | W 1.7 | A 1.96 | V 2.09 | T 1.62 | M 2.51 | C 1.52 | R 1.96 | Y 2.47
L7: M 3 | W 1.51 | Q 3.16 | R 2.63 | E 3.24 | K 2.89 | V 3.31
F1: T 4.6 | N 4.16 | W 3.74 | S 4.3 | Q 4.54 | V 4.27 | R 4.24 | I 4.27 | A 4.17 | L 3.9 | E 4.65 | G 4.27 | M 4.27 | P 4.53 | D 4.35 | H 4.28 | K 4.17 | Y 3 | C 2.6
P9: G 2.78 | T 2.46 | F 1.58 | D 2.74 | Y 2.03 | R 2.3 | H 2.56 | Q 2.62 | S 2.82 | N 2.84 | I 2.43 | L 2.11 | A 2.59 | C 2 | W 2.97 | M 1.84 | K 2.67 | E 2.89 | V 2.62
L14: C 2.4 | G 2.66 | V 3.24 | W 1.38 | F 2.14 | Y 2.59 | I 3 | N 3.61 | A 3.58 | D 4.01 | H 3.49 | T 3.41 | P 3.48 | K 2.8 | E 3.74 | S 3.44 | R 3.56 | Q 3.88 | M 3.29
